# From patent publication US20240092890A1 (JUNTENDO EDUCATIONAL FOUNDATION, published 2024)
# T1: protein having an Fc region and a His-tag added to the N-terminus of SEQ ID NO: 1
# T1 construct: also called mutant CALR protein (antigen of the BLItz measurement); not shown: Fc region and His-tag at the N-terminus
# T1 chain: RRMMRTKMRMRRM
# Molecular target: T1, protein having an Fc region and a …
# Assay: BLItz biolayer interferometry, Fc/His-SEQ ID NO: 1 protein on the biosensor
# Protocol: As another method, measurements were performed using the molecular interaction analysis system BLItz (ForteBio), which applies biolayer interferometry […]. Specifically, a protein having an Fc region and a His-tag added to the N-terminus of SEQ ID NO: 1 was immobilized at a concentration of 0.1 mg/mL using the Anti-Penta-HIS or ProteinA biosensor (ForteBio). Subsequently, the antibodies 1 to 114 made were prepared at a concentration of 500, 100, and 50 nM and reacted to acquire the dissociation constant.
row,Binder,Kd [pM]
1,Antibody 73 (bispecific antibody) chain 1: not shown chain 2: DIQMTQSPSFVSASVGDRVTITCLASEDIYSYLAWYQQKPGKAPKLLIFAANRLQSGVPSRFSGGGSGTGFTLTISSLQPEDFATYFCLQGSKFPYTFGQGTKLEINRTVAAPSVFIFPPSDEQLKSGTASVVCLLNNFYPREAKVQWKVDNALQSGNSQESVTEQDSKDSTYSLSSTLTLSKADYEKHKVYACEVTHQGLSSPVTKSFNRGEC,< 1
2,Antibody 81 (bispecific antibody) chain 1: not shown chain 2: DIQMTQSPSSLSASVGDRVTITCLASEDIYSYLAWYQQKPGKAPKLLIFAANRLQDGVPSRFSGSGSGTDFTLTISSLQPEDFATYYCLQGSKFPYTFGPGTKVDIKRTVAAPSVFIFPPSDEQLKSGTASVVCLLNNFYPREAKVQWKVDNALQSGNSQESVTEQDSKDSTYSLSSTLTLSKADYEKHKVYACEVTHQGLSSPVTKSFNRGEC,< 1
3,Antibody 93 (bispecific antibody) chain 1: not shown chain 2: DIQMTQSPSSLSASVGDRVTITCLASEDIYSYLAWYQQKPGKAPKLLIFAANRLQSGVPSRFSGSGSGTDFTLTISSLQPEDFATYYCLQGSKFPYTFGPGTKVDIKRTVAAPSVFIFPPSDEQLKSGTASVVCLLNNFYPREAKVQWKVDNALQSGNSQESVTEQDSKDSTYSLSSTLTLSKADYEKHKVYACEVTHQGLSSPVTKSFNRGEC,< 1
4,Antibody 87 (bispecific antibody) chain 1: not shown chain 2: DIQMTQSPSSLSASVGDRVTITCLASEDIYSYLAWYQQKPGKAPKLLIFAANRLQSGVPSRFSGSGSGTDFTLTISSLQPEDFATYYCLQGSKFPYTFGPGTKVDIKRTVAAPSVFIFPPSDEQLKSGTASVVCLLNNFYPREAKVQWKVDNALQSGNSQESVTEQDSKDSTYSLSSTLTLSKADYEKHKVYACEVTHQGLSSPVTKSFNRGEC,< 1
5,Antibody 99 (bispecific antibody) chain 1: not shown chain 2: DIQMTQSPSSLSASVGDRVTITCLASEDIYSYLAWYQQKPGKAPKLLIFAANRLQDGVPSRFSGSGSGTDFTLTISSLQPEDFATYYCLQGSKFPYTFGPGTKVDIKRTVAAPSVFIFPPSDEQLKSGTASVVCLLNNFYPREAKVQWKVDNALQSGNSQESVTEQDSKDSTYSLSSTLTLSKADYEKHKVYACEVTHQGLSSPVTKSFNRGEC,< 1
6,Antibody 96 (bispecific antibody) chain 1: not shown chain 2: DIQMTQSPSSLSASVGDRVTITCLASEDIYSYLAWYQQKPGKAPKLLIFAANRLQDGVPSRFSGSGSGTDFTLTISSLQPEDFATYYCLQGSKFPYTFGPGTKVDIKRTVAAPSVFIFPPSDEQLKSGTASVVCLLNNFYPREAKVQWKVDNALQSGNSQESVTEQDSKDSTYSLSSTLTLSKADYEKHKVYACEVTHQGLSSPVTKSFNRGEC,< 1
7,Antibody 97 (bispecific antibody) chain 1: not shown chain 2: DIQMTQSPSSLSASVGDRVTITCLASEDIYSYLAWYQQKPGKAPKLLIFAANRLQDGVPSRFSGSGSGTDFTLTISSLQPEDFATYYCLQGSKFPYTFGPGTKVDIKRTVAAPSVFIFPPSDEQLKSGTASVVCLLNNFYPREAKVQWKVDNALQSGNSQESVTEQDSKDSTYSLSSTLTLSKADYEKHKVYACEVTHQGLSSPVTKSFNRGEC,< 1
8,Antibody 98 (bispecific antibody) chain 1: not shown chain 2: DIQMTQSPSSLSASVGDRVTITCLASEDIYSYLAWYQQKPGKAPKLLIFAANRLQDGVPSRFSGSGSGTDFTLTISSLQPEDFATYYCLQGSKFPYTFGPGTKVDIKRTVAAPSVFIFPPSDEQLKSGTASVVCLLNNFYPREAKVQWKVDNALQSGNSQESVTEQDSKDSTYSLSSTLTLSKADYEKHKVYACEVTHQGLSSPVTKSFNRGEC,< 1
9,Antibody 95 (bispecific antibody) chain 1: not shown chain 2: DIQMTQSPSSLSASVGDRVTITCLASEDIYSYLAWYQQKPGKAPKLLIFAANRLQDGVPSRFSGSGSGTDFTLTISSLQPEDFATYYCLQGSKFPYTFGPGTKVDIKRTVAAPSVFIFPPSDEQLKSGTASVVCLLNNFYPREAKVQWKVDNALQSGNSQESVTEQDSKDSTYSLSSTLTLSKADYEKHKVYACEVTHQGLSSPVTKSFNRGEC,< 1
10,Antibody 79 (bispecific antibody) chain 1: not shown chain 2: DIQMTQSPSFVSASVGDRVTITCLASEDIYSYLAWYQQKPGKAPKLLIFAANRLQDGVPSRFSGGGSGTGFTLTISSLQPEDFATYFCLQGSKFPYTFGQGTKLEIKRTVAAPSVFIFPPSDEQLKSGTASVVCLLNNFYPREAKVQWKVDNALQSGNSQESVTEQDSKDSTYSLSSTLTLSKADYEKHKVYACEVTHQGLSSPVTKSFNRGEC,< 1
11,"Antibody 112 (bispecific antibody, human IgG1, kappa, L234A L235A) chain 1: not shown chain 2: DIQMTQSPSSLSASVGDRVTITCLASEDIYSYLAWYQQKPGKAPKLLIFAANRLQDGVPSRFSGSGSGTDFTLTISSLQPEDFATYYCLQGSKFPYTFGPGTKVDIKGGGGSGGGGSGGGGSQVQLVQSGAEVKKPGSSVKVSCKASGYTFTRNFIHWIRQAPGQGLEWIGWIFPGDADTEYNQKFSGRATITADKSTSTAYMELSSLRSEDTAVYYCARGNYNYEYFDYWGQGTMVTVSSDKTHTCPPCPAPEAAGGPSVFLFPPKPKDTLMISRTPEVTCVVVDVSHEDPEVKFNWYVDGVEVHNAKTKPREEQYNSTYRVVSVLTVLHQDWLNGKEYKCKVSNKALPAPIEKTISKAKGQPREPQVCTLPPSREEMTKNQVSLSCAVKGFYPSDIAVEWESNGQPENNYKTTPPVLDSDGSFFLVSKLTVDKSRWQQGNVFSCSVMHEALHNHYTQKSLSLSPGK chain 3: DIQMTQSPSSLSASVGDRVTITCLASEDIYSYLAWYQQKPGKAPKLLIFAANRLQDGVPSRFSGSGSGTDFTLTISSLQPEDFATYYCLQGSKFPYTFGPGTKVDIKRTVAAPSVFIFPPSDEQLKSGTASVVCLLNNFYPREAKVQWKVDNALQSGNSQESVTEQDSKDSTYSLSSTLTLSKADYEKHKVYACEVTHQGLSSPVTKSFNRGECGGGGSGGGGSQVQLVQSGGGVVQPGRSLRLSCKASGYTFTRYTMHWVRQAPGKGLEWIGYINPSRGYTNYNQKVKDRFTISRDNSKNTAFLQMDSLRPEDTGVYFCARYYDDHYSLDYWGQGTPVTVSSGGGGSGGGGSGGGGSDIQMTQSPSSLSASVGDRVTITCSASSSVSYMNWYQQTPGKAPKRWIYDTSKLASGVPSRFSGSGSGTDYTFTISSLQPEDIATYYCQQWSSNPFTFGQGTKLQITR",< 1
12,"Antibody 113 (bispecific antibody, human IgG1, kappa, L234A L235A) chain 1: not shown chain 2: DIQMTQSPSSLSASVGDRVTITCLASEDIYSYLAWYQQKPGKAPKLLIFAANRLQDGVPSRFSGSGSGTDFTLTISSLQPEDFATYYCLQGSKFPYTFGPGTKVDIKGGGGSGGGGSGGGGSQVQLVQSGAEVKKPGSSVKVSCKASGYTFTRNFIHWIRQAPGQGLEWIGWIFPGDADTEYNQKFSGRATITADKSTSTAYMELSSLRSEDTAVYYCARGNYNYEYFDYWGQGTMVTVSSDKTHTCPPCPAPEAAGGPSVFLFPPKPKDTLMISRTPEVTCVVVDVSHEDPEVKFNWYVDGVEVHNAKTKPREEQYNSTYRVVSVLTVLHQDWLNGKEYKCKVSNKALPAPIEKTISKAKGQPREPQVCTLPPSREEMTKNQVSLSCAVKGFYPSDIAVEWESNGQPENNYKTTPPVLDSDGSFFLVSKLTVDKSRWQQGNVFSCSVMHEALHNHYTQKSLSLSPGK chain 3: DIQMTQSPSSLSASVGDRVTITCLASEDIYSYLAWYQQKPGKAPKLLIFAANRLQSGVPSRFSGSGSGTDFTLTISSLQPEDFATYYCLQGSKFPYTFGPGTKVDIKRTVAAPSVFIFPPSDEQLKSGTASVVCLLNNFYPREAKVQWKVDNALQSGNSQESVTEQDSKDSTYSLSSTLTLSKADYEKHKVYACEVTHQGLSSPVTKSFNRGECGGGGSGGGGSQVQLVQSGGGVVQPGRSLRLSCKASGYTFTRYTMHWVRQAPGKGLEWIGYINPSRGYTNYNQKVKDRFTISRDNSKNTAFLQMDSLRPEDTGVYFCARYYDDHYSLDYWGQGTPVTVSSGGGGSGGGGSGGGGSDIQMTQSPSSLSASVGDRVTITCSASSSVSYMNWYQQTPGKAPKRWIYDTSKLASGVPSRFSGSGSGTDYTFTISSLQPEDIATYYCQQWSSNPFTFGQGTKLQITR",32.4
